Test results as given in paper PMC5748978.

Molecular target: GST-Abp1^SH3 (UniProt Q62418)
Test: pull-down

endogenous Cobl-like from rat brain extracts (natural protein)
increase of complex formation with 2 µM Ca2+ over Ca2+-free control: 46%
